Measurements: patent publication US20170298096A1 (CANIMGUIDE THERAPEUTICS, published 2017)
No end group written: not given here.

T1: His-tagged P3028 (human, also: His-tag, terminus and sequence not given here)
T1 construct: in solution at 0.5 ug/mL over the peptide cards; found with anti-His-tag antibody and rabbit anti-mouse peroxidase (rampo); also called PGE73; not shown: His-tag
T1 peptide: VFDEFKPLVEEPQNLIK


Target: T1, His-tagged P3028
Experiment: PEPSCAN chip ELISA, His-P3028 in solution;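 also: score is the raw OD at 405 nm from peroxidase colour with ABTS, imaged by CCD camera before and after staining, with wells showing air bubbles set to zero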
Method: After washing, the peroxidase substrate 2,2′-azine-di-3-ethylbenzthiazoline sulfonate (ABTS) and 2 μL of 3% H2O2 were added. The binding capacity of the mAb was measured as a color development at 405 nm (optical density, OD405). The color development was quantified with a charge-coupled device (CCD)—camera and an image processing system.
The OD405-values obtained by a CCD-camera was considered as raw data values (“rampo values,” “rampo units,” or “rampo scores”). […] First the CCD-camera made a picture of the card before peroxidase coloring and then again a picture after the peroxidase coloring. […] These values were copied into an excel file and labeled as a raw data file. One follow-up manipulation was allowed. Sometimes a well can contain an air-bubble resulting in a false-positive value. If manual inspection of the cards detect an air-bubble the value are set to 0 for that well.

Row | RAMPO Score | Binder
1 | 443 rampo score | KKLWTFFVKLSLFTER [SEQ ID NO 302]
2 | 466 rampo score | KKLDTIFVKLSLFTER [SEQ ID NO 314]
3 | 502 rampo score | KKLDTFFVKLSLRTER [SEQ ID NO 371]
4 | 426 rampo score | KKLDTFFVKASLFTER [SEQ ID NO 332]
5 | 437 rampo score | KKLDTFFVKLSTFTER [SEQ ID NO 358]
6 | 511 rampo score | KKLDTFQVKLSLFTER [SEQ ID NO 322]
7 | 351 rampo score | KKLDTFFVKSSLFTER [SEQ ID NO 341]
8 | 481 rampo score | KKLDTTFVKLSLFTER [SEQ ID NO 318]
9 | 547 rampo score | KKLDTVFVKLSLFTER [SEQ ID NO 319]
10 | 409 rampo score | KKLDTFFVKLSWFTER [SEQ ID NO 360]
11 | 462 rampo score | KKLDTFFVKLSAFTER [SEQ ID NO 350]
12 | 478 rampo score | KKLDTFFVKLSSFTER [SEQ ID NO 357]
13 | 400 rampo score | KKLDTFFVKLSLCTER [SEQ ID NO 362]
14 | 545 rampo score | KKLDTFFVKLSVFTER [SEQ ID NO 359]
15 | 460 rampo score | KKLDTFFVKLSHFTER [SEQ ID NO 351]
16 | 527 rampo score | KKLDTFVVKLSLFTER [SEQ ID NO 325]
17 | 497 rampo score | KKLDTPFVKLSLFTER [SEQ ID NO 317]
18 | 1050 rampo score | KKLDTFFVKLSLHTER [SEQ ID NO 364]
19 | 448 rampo score | KKLDTFFVKLSLLTER [SEQ ID NO 366]
20 | 374 rampo score | KKLDTFFVRLSLFTER [SEQ ID NO 331]
21 | 470 rampo score | KKLDTFFVKQSLFTER [SEQ ID NO 339]
22 | 365 rampo score | KKLDTFFRKLSLFTER [SEQ ID NO 330]
23 | 517 rampo score | KKLDTFLVKLSLFTER [SEQ ID NO 320]
24 | 458 rampo score | KKLDSFFVKLSLFTER [SEQ ID NO 310]

Row | RAMPO Score | Binder
25 | 483 rampo score | KKLDTFFVKLSRFTER [SEQ ID NO 356]
26 | 468 rampo score | KKLDTFFVKLSLITER [SEQ ID NO 365]
27 | 862 rampo score | KKLDTFFVKLSLNTER [SEQ ID NO 368]
28 | 635 rampo score | KKLDTFFVKLSLSTER [SEQ ID NO 372]
29 | 365 rampo score | KKLDTFFVKNSLFTER [SEQ ID NO 337]
30 | 696 rampo score | KKLDTFFVKLSLPTER [SEQ ID NO 369]
31 | 358 rampo score | KKLDTFFFKLSLFTER [SEQ ID NO 326]
32 | 517 rampo score | KKLDTFTVKLSLFTER [SEQ ID NO 324]
33 | 379 rampo score | KKLDTFFGKLSLFTER [SEQ ID NO 327]
34 | 744 rampo score | KKLDTFFVKLMLFTER [SEQ ID NO 346]
35 | 712 rampo score | KKLDTFMVKLSLFTER [SEQ ID NO 321]
36 | 451 rampo score | KKLDTFFVKLNLFTER [SEQ ID NO 347]
37 | 475 rampo score | KKLDMFFVKLSLFTER [SEQ ID NO 305]
38 | 658 rampo score | KKLDTFFVKVSLFTER [SEQ ID NO 343]
39 | 535 rampo score | KKLDTFFVKLHLFTER [SEQ ID NO 345]
40 | 436 rampo score | KKLDNFFVKLSLFTER [SEQ ID NO 306]
41 | 499 rampo score | KKLDTFFVKLSMFTER [SEQ ID NO 353]
42 | 403 rampo score | KKLDTFFVKFSLFTER [SEQ ID NO 333]
43 | 467 rampo score | KKLDTMFVKLSLFTER [SEQ ID NO 315]
44 | 382 rampo score | KKLDTFFVKYSLFTER [SEQ ID NO 344]
45 | 768 rampo score | KKLDTFFVKLQLFTER [SEQ ID NO 348]
46 | 436 rampo score | KKLDTFFVKPSLFTER [SEQ ID NO 338]
47 | 425 rampo score | KKLDYFFVKLSLFTER [SEQ ID NO 312]
48 | 449 rampo score | KKLDCFFVKLSLFTER [SEQ ID NO 304]

Row | RAMPO Score | Binder
49 | 535 rampo score | KKLDQFFVKLSLFTER [SEQ ID NO 308]
50 | 651 rampo score | KKLDTFFVKLSQFTER [SEQ ID NO 355]
51 | 460 rampo score | KKLDTFFVKMSLFTER [SEQ ID NO 336]
52 | 430 rampo score | KKLDRFFVKLSLFTER [SEQ ID NO 309]
53 | 456 rampo score | KKLDTFFPKLSLFTER [SEQ ID NO 329]
54 | 575 rampo score | KKLDTAFVKLSLFTER [SEQ ID NO 313]
55 | 462 rampo score | KKLDTFFVKLSNFTER [SEQ ID NO 354]
56 | 520 rampo score | KKLDTFFVKLTLFTER [SEQ ID NO 349]
57 | 427 rampo score | KKLDPFFVKLSLFTER [SEQ ID NO 307]
58 | 446 rampo score | KKLDTNFVKLSLFTER [SEQ ID NO 316]
59 | 415 rampo score | KKLDTFFVKISLFTER [SEQ ID NO 335]
60 | 439 rampo score | KKLDTFFVKRSLFTER [SEQ ID NO 340]
61 | 1190 rampo score | KKLDTFFVKLSLMTER [SEQ ID NO 367]
62 | 422 rampo score | KKLYTFFVKLSLFTER [SEQ ID NO 303]
63 | 1140 rampo score | KKLDTFFVKLSLQTER [SEQ ID NO 370]
64 | 525 rampo score | KKLDTFFVKLSLATER [SEQ ID NO 361]
65 | 495 rampo score | KKLDTFFVKGSLFTER [SEQ ID NO 334]
66 | 531 rampo score | KKLDTFFVKLSLGTER [SEQ ID NO 363]
67 | 700 rampo score | KKLDTFSVKLSLFTER [SEQ ID NO 323]
68 | 399 rampo score | KKLDTFFVKTSLFTER [SEQ ID NO 342]
69 | 411 rampo score | KKLDTFFLKLSLFTER [SEQ ID NO 328]
70 | 418 rampo score | KKLDWFFVKLSLFTER [SEQ ID NO 311]
71 | 456 rampo score | KKLDTFFVKLSIFTER [SEQ ID NO 352]
